In patent US20250052768A1 (UNIVERSIT T HEIDELBERG, published 2025):

Key:
[1] = target: T1, DLL1 antigen (recombinant DLL1 protein) (human, UniProt O00548 18-540, limits assumed); assay: sandwich ELISA, capture AbD33906, detection AbD33906-HRP, DLL1 2 ug/ml
T1 construct: also called Delta-like 1
T1 sequence (looked up): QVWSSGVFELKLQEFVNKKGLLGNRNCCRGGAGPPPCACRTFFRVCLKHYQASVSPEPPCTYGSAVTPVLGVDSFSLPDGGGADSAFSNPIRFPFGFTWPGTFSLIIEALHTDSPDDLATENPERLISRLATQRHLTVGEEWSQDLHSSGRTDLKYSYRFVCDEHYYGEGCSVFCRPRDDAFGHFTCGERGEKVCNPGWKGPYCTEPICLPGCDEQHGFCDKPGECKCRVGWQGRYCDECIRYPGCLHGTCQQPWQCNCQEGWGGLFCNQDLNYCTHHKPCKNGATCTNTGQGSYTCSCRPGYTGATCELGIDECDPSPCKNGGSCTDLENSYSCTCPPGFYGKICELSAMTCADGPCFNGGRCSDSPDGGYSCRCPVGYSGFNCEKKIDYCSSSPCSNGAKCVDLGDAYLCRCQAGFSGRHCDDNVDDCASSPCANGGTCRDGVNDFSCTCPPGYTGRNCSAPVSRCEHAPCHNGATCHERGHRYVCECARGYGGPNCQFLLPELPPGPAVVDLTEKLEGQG
Protocol: (§1) As control coating a-Fd (Bio-Rad antibodies, STAR126) at 5 μg/ml in PBS was used. Per well a volume of 20 μl coating solution was used. The Polystyrene ELISA plates were then incubated overnight at 4° C. with a closed lid. […] Subsequently, blocking of non-specific binding sites was performed with 100 μl per well of PBST containing 5% (w/v) BSA (Sigma-Aldrich, A7906-100). This blocking step was conducted at RT for 1-2 h. After removal of the blocking solution, five washes with PBST were performed. Thereafter, 2 μg/ml DLL1 antigen in PBST were added or PBST only (20 μl per well, triplicates were prepared). Incubation with the DLL1 antigen solution or PBST was performed at RT for 1 h. Next, the DLL1 antigen solution or PBST were removed and five washes with PBST were performed. […] After removal of this solution, ten washes with PBST were performed. […] For detection in the ELISA reader (Tecan Infinite M1000Pro Reader, Tecan Austria GmbH) excitation was performed at 320±25 nm and emission was detected at 430±35 nm.

[2] = target: T1, DLL1 antigen (recombinant DLL1 protein); assay: sandwich ELISA, capture AbD33906, detection AbD33905-HRP, DLL1 2 ug/ml
Protocol: as §1

[3] = target: T1, DLL1 antigen (recombinant DLL1 protein); assay: sandwich ELISA, capture AbD33905, detection AbD33906-HRP, DLL1 2 ug/ml
Protocol: as §1

[4] = target: T1, DLL1 antigen (recombinant DLL1 protein); assay: sandwich ELISA, capture AbD33905, detection AbD33905-HRP, DLL1 2 ug/ml
Protocol: as §1

[5] = target: T1, DLL1 antigen (recombinant DLL1 protein); assay: ELISA on antigen coated at 5 ug/ml, anti-Strep-HRP secondary antibody
Protocol: (§2) The binding specificity of AbD33905 in form of a bivalent Fab fragment fused to alkaline phosphatase followed by a FLAG®-tag and Twin-Strep®-tag was tested in the following ELISA:
(§3) Per well a volume of 20 μl coating solution was used. The Polystyrene ELISA plates were then incubated overnight at 4° C. with a closed lid. […] Subsequently, blocking of non-specific binding sites was performed with 100 μl per well of PBST containing 5% (w/v) non-fat dry milk. This blocking step was conducted at RT for 1-2 h. After removal of the blocking solution, five washes with PBST were performed. Thereafter, AbD33905 in form of a bivalent Fab fragment fused to alkaline phosphatase followed by a FLAG®-tag and Twin-Strep®-tag in PBST was added (20 μl per well). Incubation with this AbD33905 Fab fragment was performed at RT for 1 h. Next, the AbD33905 Fab fragment containing solution was removed and five washes with PBST were performed. Thereafter 20 μl/well of 2 μg/ml anti-Strep-HRP secondary antibody (Bio-Rad antibodies, MCA2489P, 1:5000) in HISPEC assay diluent (Bio-Rad Antibodies, BUF049) were added and incubated at RT for 1 h. After removal of this solution, ten washes with PBST were performed. […] For detection in the ELISA reader (Tecan Infinite M1000Pro Reader, Tecan Austria GmbH) excitation was performed at 320±25 nm and emission was detected at 430±35 nm.

N1-CD33-His6 = assay: as above
Protocol: as §2, §3

[6] = target: bovine serum albumin (BSA) (bovine, UniProt P02769 25-607); assay: as above
Protocol: as §2, §3

GST = assay: as above
Chain of GST (P08515 2-218): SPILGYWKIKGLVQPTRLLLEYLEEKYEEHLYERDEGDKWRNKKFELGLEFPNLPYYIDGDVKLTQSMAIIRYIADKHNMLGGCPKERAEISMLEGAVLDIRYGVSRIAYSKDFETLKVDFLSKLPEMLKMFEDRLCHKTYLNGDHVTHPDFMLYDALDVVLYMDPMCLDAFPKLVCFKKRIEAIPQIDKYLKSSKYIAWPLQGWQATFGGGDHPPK
Protocol: as §2, §3

Chain of bovine serum albumin (BSA) (P02769 25-607 limits assumed): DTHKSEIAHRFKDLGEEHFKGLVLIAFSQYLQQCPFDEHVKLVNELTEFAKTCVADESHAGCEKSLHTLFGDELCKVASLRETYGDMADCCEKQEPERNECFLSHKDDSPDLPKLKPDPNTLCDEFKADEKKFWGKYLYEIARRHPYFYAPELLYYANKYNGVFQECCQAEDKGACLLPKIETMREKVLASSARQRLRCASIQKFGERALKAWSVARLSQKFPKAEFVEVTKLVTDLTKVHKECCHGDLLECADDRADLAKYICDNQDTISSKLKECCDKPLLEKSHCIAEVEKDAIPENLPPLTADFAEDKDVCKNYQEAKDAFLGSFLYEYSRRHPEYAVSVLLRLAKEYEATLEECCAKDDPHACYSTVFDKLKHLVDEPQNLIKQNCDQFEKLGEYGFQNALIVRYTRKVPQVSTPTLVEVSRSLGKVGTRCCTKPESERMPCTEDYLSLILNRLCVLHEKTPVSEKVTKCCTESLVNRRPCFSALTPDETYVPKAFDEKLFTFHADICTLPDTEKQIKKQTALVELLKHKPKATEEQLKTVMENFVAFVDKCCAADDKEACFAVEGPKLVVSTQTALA

B1: AbD33906 (Fab fragment, monovalent) (Fab, V domains shown)
VH: QVQLVQSGAEVKKPGSSVKVSCKASGGTFSSYAISWVRQAPGQGLEWMGGIIPQFGIANYAQKFQGRVTITADESTSTAYMELSSLRSEDTAVYYCAREGYSDYSAFDYWGQGTLVTVSS
VL: DIALTQPASVSGSPGQSITISCTGTSSDVGTYNYVNWYQQHPGKAPKVMIYRVSNRPSGVSNRFSGSKSGNTASLTISGLQAEDEADYYCSSWDEHSYVFGGGTKLTVLG
notes: also called AbD33906 Fab fragments
emission value DLL1 antigen/emission value PBST [1]: 7 ratio
emission value DLL1 antigen/emission value PBST [2]: 132 ratio

B2: AbD33905 (Fab fragment, monovalent) (Fab, V domains shown)
VH: EVQLLESGGGLVQPGGSLRLSCAASGFTFSSYAMHWVRQAPGKGLEWVSFISSGGSTTYYADSVKGRFTISRDNSKNTLYLQMNSLRAEDTAVYYCARFRSGYFDYWGQGTLVTVSS
VL: DIVMTQSPLSLPVTPGEPASISCRSSQSLVHSNGADYLNWYLQKPGQSPQLLIYKGSNRDSGVPDRFSGSGSGTDFTLKISRVEAEDVGVYYCQQGYDFPPFTFGQGTKVEIKR
notes: Monovalent Fab; also called Ab33905; monovalent AbD33905
emission value DLL1 antigen/emission value PBST [3]: 66 ratio
emission value DLL1 antigen/emission value PBST [4]: 8 ratio

B3: AbD33905 in form of a bivalent Fab fragment fused to alkaline phosphatase followed by a FLAG-tag and Twin-Strep-tag (Fab, V domains shown)
VH: EVQLLESGGGLVQPGGSLRLSCAASGFTFSSYAMHWVRQAPGKGLEWVSFISSGGSTTYYADSVKGRFTISRDNSKNTLYLQMNSLRAEDTAVYYCARFRSGYFDYWGQGTLVTVSS
VL: DIVMTQSPLSLPVTPGEPASISCRSSQSLVHSNGADYLNWYLQKPGQSPQLLIYKGSNRDSGVPDRFSGSGSGTDFTLKISRVEAEDVGVYYCQQGYDFPPFTFGQGTKVEIKR
notes: it is put on the heavy chain here; also called AbD33905 bivalent Fab fragment; not shown: alkaline phosphatase, then FLAG-tag and Twin-Strep-tag
Emission data [5]: 15500 arbitrary units
Emission data (N1-CD33-His6): 46 arbitrary units
Emission data [6]: 71 arbitrary units
Emission data (GST): 70 arbitrary units
